According to US20240216513A1, “FATTY ACID-BIFUNCTIONAL DEGRADER CONJUGATES AND THEIR METHODS OF USE” (Novartis AG, priority 2021, published 2024):
Read-outs that look alike come from different tables or passages of the source. Marks after values point to notes of the source that are not given here.

Legend:
[1] = In vivo pharmacokinetic study in mice (i.v. or s.c.), FAC and payload in blood; set-up: species or system mouse; details: for AUC: male, C57/B16, whole blood
Protocol: Pharmacokinetic studies were conducted in male C57/B16 mice; male Sprague-Dawley rats; male Beagle dogs and male Cynomolgus monkeys. 3 animals per group were used for each study performed. All studies were performed in accordance with local animal welfare regulations.
[…] Serial 30 µL blood samples were collected via venipuncture of the tail vein in mouse, and via the cannulated jugular vein in rats at defined timepoints to 216 hours (into EDTA coated tubes).
Each blood sample was precipitated with acetonitrile containing internal standard; samples were mixed and centrifuged (20 minutes 4000 RPM at 4° C.). Supernatant was transferred to a microwell plate and evaporated under nitrogen at 60° C. Residue was resuspended in acetonitrile/water (7:3 v/v); plate sealed and transferred to an ultrasonic bath for 3 minutes, prior to analysis. Quantification was performed by LC-MS/MS (SciexAP16500 Q-trap, Shimadzu Nexera X2) using a Phenomenex Polar RP analytical column (2.5 μm particle size; 50×2 mm). The mobile phase consisted of solvent A (0.1% formic acid in water) and solvent B (0.1% formic acid in acetonitrile). The fatty acid conjugate and API were detected using multiple reaction monitoring.
Data analysis and calculation of non-compartmental pharmacokinetic parameters was
performed using an in-house analysis. Following intravenous administration whole blood clearance was calculated by the dose administered divided by AUC0-inf. Volume of distribution at steady state was calculated as MRT*CL, where MRT is the mean residence time, calculated by AUMC0-inf/AUC0-inf. The half-life (t1/2) of the terminal elimination phase was calculated by 0.693/λ. For both intravenous and subcutaneous administration, the systemic exposures were determined by calculating the area under the blood concentration time curve (AUC) from time zero to the last observed quantifiable concentration (AUClast) by using the linear trapezoidal method and normalised to dose. Extrapolated AUC (AUC0-inf) is calculated by addition of AUClast and AUCtlast-inf; where AUCtlast-inf is calculated based on Clast/λ. The slope of the terminal elimination phase was estimated by linear regression of the terminal data points (minimum 3 points) from a natural log concentration versus time plot of the data. Bioavailability was calculated as the dose normalized ratio of […] AUCinf to intravenous AUCinf (100*[SC AUCinf/SC dose]/[IV AUCinf/IV dose]). Following subcutaneous administration Cmax is calculated as the average maximum observed peak concentration and Tmax is the time associated with the determined Cmax.
For PK experiments, non-tumor bearing mice or rats were treated once (10 mL/kg) with a compound either i.v. or s.c. Serial blood samplings from the tail vein (5-20 μl) were collected during the course of the experiment. For PK/PD experiments in tumor-bearing mice, compound was administered once (10 mL/kg) either i.v. or s.c. Animals were randomized into groups of n=3 and tissue samples were collected at several time points. At the times indicated, animals were anaesthetized by exposure to 2-3% v/v isoflurane in medical oxygen. They were sacrificed without recovering from anesthetic after blood sampling into commercially prepared EDTA coated tubes (Milian, cat #TOM-14C) in order to extract plasma. The tissues were excised, weighted and rapidly frozen in liquid nitrogen. Later, tumors were cryogenic dry pulverized with the CryoPrep™ system (model CP-02, Covaris). For efficacy experiments in ectopic tumor-bearing mice, animals were randomized into groups of n=6 for a mean tumor size of 100 mm^3 and compound was administered either i.v. q3w or s.c. q2w. When implanted in brain, animals were randomized into groups of n=4 for a mean bioluminescence of 1.0-2.0E+06 [p/s]/[ρW/cm^2] and compound was administered i.v. qw. Tumor response were reported with the measures of tumor volumes or bioluminescence from the treatment start. […]

[2] = BTK FAC plasma stability assay, PBS buffer arm; assay type: physicochemical; details: for Plasma stability (h) PBS: incubation to 24 h
How it was run: (§1)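 Compound from a 500 µM acetonitrile:water working solution was spiked into K3-EDTA plasma or Dulbecco's PBS and incubated with shaking at 38 °C. Samples taken at 0, 2, 6 and 24 h were precipitated with cold acetonitrile containing glyburide internal standard. Semi-quantitative LC-MS/MS used analyte:internal standard peak area ratios.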

[3] = BTK FAC plasma stability assay, mouse plasma; assay type: in vitro ADME
How it was run: as §1

[4] = BTK FAC plasma stability assay, rat plasma; assay type: in vitro ADME
How it was run: as §1

[5] = BTK FAC plasma stability assay, dog plasma; assay type: in vitro ADME
[6] = BTK FAC plasma stability assay, cyno plasma; assay type: in vitro ADME, cynomolgus monkey
BTK C481S = target: T1, BTK C481S (Homo sapiens, UniProt Q06187, C481S); experiment: PD screen in TMD8 BTK C481S mutant tumor-bearing mice, BTK levels and compound concentrations in blood and tumor; assay type: in vivo, mouse
T1 construct: endogenous in cells; host or cells: TMD8 BTK C481S mutant tumour xenografts in mice
Protocol: All animal studies were conducted in accordance with ethics and procedures covered by permit nos. BS-1975 issued by the Kantonales Veterinäramt Basel-Stadt and in strict adherence to guidelines of the Eidgenössisches Tierschutzgesetz and the Eidgenössische Tierschutzverordnung, Switzerland. All animals had access to food and water ad libitum and were identified with transponders. They were housed in a specific pathogen-free facility with a 12-h light/12-h dark cycle. For PD screen experiments in TMD8 BTK C481S mutant tumor-bearing mice, FAC was injected once. Animals were randomized into groups of 2 and tissue samples collected at day 0, 4, 7 and in some studies day 10 as well. Blood samples were collected and tumors were excised, weighed, frozen in liquid nitrogen and cryogenic dry pulverized with the CryoPrep™ system (model CP-02, Covaris). Concentrations of compounds in blood and tumors were determined by UPLC/MS-MS and BTK levels were analyzed by Meso Scale Discovery.

T1 sequence (Q06187 whole entry C481S): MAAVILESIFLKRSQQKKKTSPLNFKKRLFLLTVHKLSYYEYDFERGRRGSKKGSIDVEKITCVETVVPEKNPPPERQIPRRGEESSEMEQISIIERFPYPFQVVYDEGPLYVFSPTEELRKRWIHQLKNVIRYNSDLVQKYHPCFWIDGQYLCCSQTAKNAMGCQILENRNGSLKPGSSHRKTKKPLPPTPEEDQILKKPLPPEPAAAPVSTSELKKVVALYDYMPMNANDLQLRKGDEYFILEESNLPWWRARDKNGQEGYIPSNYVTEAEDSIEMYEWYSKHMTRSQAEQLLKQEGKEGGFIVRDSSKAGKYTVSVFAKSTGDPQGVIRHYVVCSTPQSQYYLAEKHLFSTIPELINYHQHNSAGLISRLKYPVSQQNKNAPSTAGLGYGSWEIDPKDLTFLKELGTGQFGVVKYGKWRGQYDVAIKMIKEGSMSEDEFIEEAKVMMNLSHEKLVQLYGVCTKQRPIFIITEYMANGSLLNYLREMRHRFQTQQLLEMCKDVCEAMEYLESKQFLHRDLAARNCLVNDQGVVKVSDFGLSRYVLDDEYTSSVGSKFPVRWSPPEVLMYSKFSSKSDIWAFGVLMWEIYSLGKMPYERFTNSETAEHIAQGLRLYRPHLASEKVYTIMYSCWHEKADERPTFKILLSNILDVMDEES

| SMILES | % Release of degrader after 24 h PBS [2] | Plasma stability (h) PBS [2] | % Release of degrader after 24 h mouse [3] | Plasma stability (h) mouse ([3]; incubation to 24 h) | % Release of degrader after 24 h rat [4] | Plasma stability (h) rat ([4]; incubation to 24 h) | Plasma stability (h) dog [5] | % Release of degrader after 24 h dog [5] | Plasma stability (h) cyno [6] | % Release of degrader after 24 h cyno [6] | Duration of BTK degradation in mouse ≥90% (BTK C481S; i.v., 50 umol/kg) | further results |
| --- | --- | --- | --- | --- | --- | --- | --- | --- | --- | --- | --- | --- |
| COc1ccc(C(=O)N2CCC3(CCN(CCc4ccc(-c5cc6c(-c7cc(F)cc(NC(=O)N8C[C@H](CC(C)C)[C@@H](O)C8)c7C)ncnc6[nH]5)cc4)CC3)CC2)cc1N1CCC(=O)NC1=O [Compound Va, (3R,4S)—N-(3-(6-(4-(2-(9-(3-(2,4-dioxotetrahydropyrimidin-1(2H)-yl)-4-methoxybenzoyl)-3,9-diazaspiro[5.5]undecan-3-yl)ethyl)phenyl)-7H-pyrrolo[2,3-d]pyrimidin-4-yl)-5-fluoro-2-methylphenyl)-3-hydroxy-4-isobutylpyrrolidine-1-carboxamide] |  |  |  |  |  |  |  |  |  |  |  | Payload C0-uM (unconjugated degrader dosed, first payload cell) ([1]; API i.v., listed as note (20 mg/kg), species taken as mouse): 16.7 µM; AUC ([1]; iv, API i.v., listed as note (20 mg/kg), species taken as mouse, read-out: Payload AUC-uM.h (unconjugated degrader dosed, first payload cell)): 15.2 µM·h; AUC ([1]; sc, mouse, subcutaneous dosing, unconjugated Compound Va at 20 mg/kg, read-out: Payload AUC): 15.2 µM·h |
| CCCCCCCCCCCN(C(=O)CCCCCCCCCC(=O)O)C(CCC(=O)NCCOCCOCCOCCOCCOCCOCCOCCOCCOCCOCCOCCOCCC(=O)N(CC)CC(=O)OC(C)(C)c1ccc(C(=O)Nc2cc(F)cc(-c3ncnc4[nH]c(-c5ccc(CCN6CCC7(CC6)CCN(C(=O)c6ccc(OC)c(N8CCC(=O)NC8=O)c6)CC7)cc5)cc34)c2C)c(F)c1)C(=O)O (stereo not drawn) [Example A13, 50-Carboxy-2-(4-((3-(6-(4-(2-(9-(3-(2,4-dioxotetrahydropyrimidin-1(2H)-yl)-4-methoxybenzoyl)-3,9-diazaspiro[5.5]undecan-3-yl)ethyl)phenyl)-7H-pyrrolo[2,3-d]pyrimidin-4-yl)-5-fluoro-2-methylphenyl)carbamoyl)-3-fluorophenyl)-6-ethyl-2-methyl-4,7,47,52-tetraoxo-51-undecyl-3,10,13,16,19,22,25,28,31,34,37,40,43-tridecaoxa-6,46,51-triazadohexacontan-62-oic acid] | 1.4% | >48 h | 3.7% | >48 h | 2% | >48 h | >48 h | 2.7% | >48 h | 2.5% | 7 days |  |
| CCCCCCCCCCCN(C(=O)CCCCCCCCCC(=O)O)C(CCC(=O)NCCOCCOCCOCCOCCOCCOCCOCCOCCOCCOCCOCCOCCC(=O)N1CCC[C@H]1CC(=O)OC(C)(C)c1ccc(C(=O)Nc2cc(F)cc(-c3ncnc4[nH]c(-c5ccc(CCN6CCC7(CC6)CCN(C(=O)c6ccc(OC)c(N8CCC(=O)NC8=O)c6)CC7)cc5)cc34)c2C)c(F)c1)C(=O)O (stereo partly drawn) [Example A19, 44-Carboxy-1-((S)-2-(2-((2-(4-((3-(6-(4-(2-(9-(3-(2,4-dioxotetrahydropyrimidin-1(2H)-yl)-4-methoxybenzoyl)-3,9-diazaspiro[5.5]undecan-3-yl)ethyl)phenyl)-7H-pyrrolo[2,3-d]pyrimidin-4-yl)-5-fluoro-2-methylphenyl)carbamoyl)-3-fluorophenyl)propan-2-yl)oxy)-2-oxoethyl)pyrrolidin-1-yl)-1,41,46-trioxo-45-undecyl-4,7,10,13,16,19,22,25,28,31,34,37-dodecaoxa-40,45-diazahexapentacontan-56-oic acid] | 0.3% | >48 h | 0.5% | >48 h | 0.5% | >48 h | >48 h | 0.3% | >48 h | 0.2% |  | Duration of BTK degradation in mouse ≥90% (days) (BTK C481S; i.v., 50 umol/kg): 7* days |
| CCCCCCCCCCCN(C(=O)CCCCCCCCCC(=O)O)C(CCC(=O)NCCOCCOCCOCCOCCOCCOCCOCCOCCOCCOCCOCCOCCC(=O)N1CCC(CC(=O)OC(C)(C)c2ccc(C(=O)Nc3cc(F)cc(-c4ncnc5[nH]c(-c6ccc(CCN7CCC8(CC7)CCN(C(=O)c7ccc(OC)c(N9CCC(=O)NC9=O)c7)CC8)cc6)cc45)c3C)c(F)c2)CC1)C(=O)O (stereo not drawn) [Example A21, 44-Carboxy-1-(4-(2-((2-(4-((3-(6-(4-(2-(9-(3-(2,4-dioxotetrahydropyrimidin-1(2H)-yl)-4-methoxybenzoyl)-3,9-diazaspiro[5.5]undecan-3-yl)ethyl)phenyl)-7H-pyrrolo[2,3-d]pyrimidin-4-yl)-5-fluoro-2-methylphenyl)carbamoyl)-3-fluorophenyl)propan-2-yl)oxy)-2-oxoethyl)piperidin-1-yl)-1,41,46-trioxo-45-undecyl-4,7,10,13,16,19,22,25,28,31,34,37-dodecaoxa-40,45-diazahexapentacontan-56-oic acid] | 0.2% | >48 h | 1.9% | >48 h | 0.5% | >48 h | >48 h | 0.3% | >48 h | 0.4% | <4 days |  |
| CCCCCCCCCCCN(C(=O)CCCCCCCCCCO)C(CCC(=O)NCCOCCOCCOCCOCCOCCOCCOCCOCCOCCOCCOCCOCCC(=O)NCCC(=O)NCCC(=O)OC(C)(C)c1ccc(C(=O)Nc2cc(F)cc(-c3ncnc4[nH]c(-c5ccc(CCN6CCC7(CC6)CCN(C(=O)c6ccc(OC)c(N8CCC(=O)NC8=O)c6)CC7)cc5)cc34)c2C)c(F)c1)C(=O)O (stereo not drawn) [Example A5, 2-(4-((3-(6-(4-(2-(9-(3-(2,4-Dioxotetrahydropyrimidin-1(2H)-yl)-4-methoxybenzoyl)-3,9-diazaspiro[5.5]undecan-3-yl)ethyl)phenyl)-7H-pyrrolo[2,3-d]pyrimidin-4-yl)-5-fluoro-2-methylphenyl)carbamoyl)-3-fluorophenyl)-55-(11-hydroxy-N-undecylundecanamido)-2-methyl-4,8,12,52-tetraoxo-3,15,18,21,24,27,30,33,36,39,42,45,48-tridecaoxa-7,11,51-triazahexapentacontan-56-oic acid] | 0.1% | >48 h | 2% |  | 2.5% |  |  | 1% |  | 0.5% |  | half-life at 5 µM ([3]; incubation to 24 h): > 48 h; half-life at 5 µM ([4]; incubation to 24 h): > 48 h; half-life at 5 µM ([5]; read-out: Plasma stability (h) dog (converted)): > 48 h; half-life at 5 µM ([6]; monkey, read-out: Plasma stability (h) cyno): > 48 h; Duration of BTK degradation in mouse ≥90% (BTK C481S; i.v., 25 umol/kg): 10 days; Duration of BTK degradation in mouse ≥90% (BTK C481S; s.c., 25 umol/kg): 10 days |
